Here are results for 15 molecules from patent US20250163186A1 (PHYLAXIS BIOSCIENCE, published 2025).

Numbering of substitutions follows the chain as printed.

To fix the notation:
B1: Anti-IgE sdAb B10 (parental B10 VHH, dimeric VHH-hIgG1-Fc xELL fusion) (Fc fusion)
chain: EVQLVQSGGELVQAGGSLRLSCVASGLTFSSYNMGWLRQAPGKEREFVGMSGSSSTSTYYADSVKGRFTISRDNSKNTVYLQMNSLKPEDTAVYYCAARRMLSTYWSDRSWDFWGQGTQVTVKPDKTHTCPPCPAPGGPSVFLFPPKPKDTLMISRTPEVTCVVVDVSHEDPEVKFNWYVDGVEVHNAKTKPREEQYNSTYRVVSVLTVLHQDWLNGKEYKCKVSNKALPAPIEKTISKAKGQPREPQVYTLPPSRDELTKNQVSLTCLVKGFYPSDIAVEWESNGQPENNYKTTPPVLDSDGSFFLYSKLTVDKSRWQQGNVFSCSVMHEALHNHYTQKSLSLSPGK
B2: hzB10v21-NNT (Fc fusion)
VHH-Fc: EVQLLESGGGEVQPGGSLRLSCVASGLTFSSYNMGWLRQAPGKEREFVGLSGSSSTSTYYADSVKGRFTISRDNSKNTVYLQMSSLKPEDTAVYYCAARRLLSTYWSDRSWDFWGQGTQVTVEPGGPSVFLFPPKPKDTLMISRTPEVTCVVVDVSHEDPEVKFNWYVDGVEVHNAKTKPREEQYNSTYRVVSVLTVLHQDWLNGKEYKCKVSNKALPAPIEKTISKAKGQPREPQVYTLPPSRDELTKNQVNLTCLVKGFYPSDIAVEWESNGQPENNYKTTPPVLDSDGSFFLNSTLTVDKSRWQQGNVFSCSVMHEALHNHYTQKSLSLSPGK
notes: monomeric
B3: hzB10v26-NNT (Fc fusion)
VHH-Fc: B2 VHH-Fc with L50M, S84N, L101M, E123K
notes: monomeric
B4: hzB10v25-NNT (Fc fusion)
VHH-Fc: B2 VHH-Fc with G49S, S84N
notes: monomeric
B5: hzB10v22-NNT (Fc fusion)
VHH-Fc: B2 VHH-Fc with S84N, K87R
notes: monomeric
B6: hzB10v24-NNT (Fc fusion)
VHH-Fc: B2 VHH-Fc with L37V, S84N
notes: monomeric
B7: hzB10v23-NNT (Fc fusion)
VHH-Fc: B2 VHH-Fc with S84N, P88A
notes: monomeric
B8: hzB10v39-NNT (Fc fusion)
VHH-Fc: B2 VHH-Fc with D62E, S84T, K87R, P88A, Q119L
notes: monomeric
B9: hzB10v37-NNT (Fc fusion)
VHH-Fc: B2 VHH-Fc with D62E, S84T, P88A, Q119L
notes: monomeric
B10: hzB10v38-NNT (Fc fusion)
VHH-Fc: B2 VHH-Fc with D62E, S84T, K87R, Q119L
notes: monomeric
B11: hzB10v42-NNT (Fc fusion)
VHH-Fc: B2 VHH-Fc with D62E, N74S, S84T, K87R, P88A, Q119L
notes: monomeric
B12: hzB10v43-NNT (Fc fusion)
VHH-Fc: B2 VHH-Fc with D62E, N74T, S84T, K87R, P88A, Q119L
notes: monomeric
B13: hzB10v41-NNT (Fc fusion)
VHH-Fc: B2 VHH-Fc with D62E, N74Q, S84T, K87R, P88A, Q119L
notes: monomeric
B14: hzB10v40 monomeric VHH-hIgG1-Fc fusion (Fc NNT) (Fc fusion)
chain: B2 VHH-Fc with D62E, S75A, S84T, K87R, P88A, Q119L
notes: Humanized variants were tested as monomeric fusions with the non-dimerizing Fc NNT
B15: hzB10v44-NNT (Fc fusion)
VHH-Fc: B2 VHH-Fc with D62E, S75T, S84T, K87R, P88A, Q119L
notes: monomeric

T1 sequence (P01854 other isoform, or with tags, fused parts or gaps): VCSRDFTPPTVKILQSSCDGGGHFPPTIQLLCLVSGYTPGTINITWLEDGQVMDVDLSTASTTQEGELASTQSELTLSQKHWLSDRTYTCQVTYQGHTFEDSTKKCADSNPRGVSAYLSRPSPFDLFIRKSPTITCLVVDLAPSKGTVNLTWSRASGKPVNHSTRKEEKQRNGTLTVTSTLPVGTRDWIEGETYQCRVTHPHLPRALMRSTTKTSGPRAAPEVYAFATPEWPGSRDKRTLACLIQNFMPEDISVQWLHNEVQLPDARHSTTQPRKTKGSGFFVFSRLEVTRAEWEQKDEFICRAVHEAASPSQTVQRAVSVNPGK

One assay addresses T1, CH2-4 constant domains of human IgE linked to a transmembrane protein, on 293 cells (human, UniProt P01854-1 104-428).
T1 construct: domain: CH2-4 constant domains; also called human IgE-expressing 293 cells
Briefly: flow cytometry, 293 cells expressing human IgE CH2-4. On the procedure:
(§1) First, 25 μg of DNA was added to Opti-MEM Reduced Serum Medium (Gibco) mixed with 75 μL of 40 kDa Polyethylenimine (PEI) for a final concentration of 1 μg DNA and 2.5 μg PEI per mL of culture volume. The plasmid DNA was allowed to pre-complex with PEI for 15 minutes before transferring the mixture to 25 mL of 293 cells in a shake flask at a density of 2×10⁶ cells/mL. […] Next, 50 μL of cells were transferred to wells of a round-bottom 96-well assay plate for a total of 50,000 293 cells per well. In a separate 96-well plate, monomeric VHH-hIgG1-Fc fusion proteins were titrated 1:5 in a 8-point dilution series starting at 1 μM in FACS Buffer with the 8th point containing no antibody. 50 μL from each antibody dilution was added to wells containing 50 μL of FACS Buffer with transfected 293 cells which produced a 2-fold dilution of the antibody concentrations from the dilution series resulting in a 500 nM final, starting concentration of the test article titration. The test articles and 293 cells were incubated together at 4° C. for 30 minutes. Next, the 96-well plates were centrifuged at 400×g for 5 minutes and the FACS buffer containing unbound antibody was decanted. Cells were washed 1× with 150 μL 4° C. FACS Buffer. […] The cells were incubated with the fluorophore conjugated detection antibody at 4° C. for 20 minutes. 293 cells were then centrifuged and washed once as described above. Cell pellets were resuspended in 30 μL FACS Buffer and analyzed on an iQue Screener Plus flow cytometer (Sartorius, IntelliCyt) with a 1 second sip time and 1 second void time. Mean fluorescent intensity was calculated using iQue onboard software gating on GFP+ or citrine+ cells.
On the technique in general: A flow cytometer gives signals particle by particle.
As for B1, the Kd (commonly the concentration at which binding is half-saturated) worked out at 0.893 nM.

For the next assay, the target named is T1, CH2-4 constant domains of human IgE …. The description is as above. The source holds these as a separate data set. On the procedure: as §1
With B1, the Bmax worked out at 2.25e+06 MFI and the Kd is 0.893 nM.

A further assay has the same target. The assay is described as above. The source holds these as a separate data set. On the procedure:
as §1
As to B2, the Bmax worked out at 1.72e+06 MFI and binding was put at a Kd of 6.4 nM.

B3 gave a Kd of 1.43 nM. In turn, B4 returned a Bmax of 2.01e+06 MFI and a Kd of 2.8 nM.

B5 yielded a Bmax of 2.08e+06 MFI and a Kd of 2.39 nM. For B6 the same measures were 1.92e+06 MFI and 2.52 nM. For B7 the same measures were 1.96e+06 MFI and 1.05 nM.

The next assay has the same target. The description is as above. The source holds these as a separate data set. On the procedure: as §1
As to B8, the Kd came out at 1.37 nM. Molecule B9 gave a Bmax of 1.9e+06 MFI and a dissociation constant (Kd) of 1.51 nM. B10 yielded a Bmax of 2.02e+06 MFI and a Kd of 0.98 nM.

The next assay has the same target. The description is as above. This is another data set of the same source. On the procedure:
as §1
B11 came in with a Bmax of 1.45e+06 MFI and a Kd of 2.27 nM. The corresponding values for B12 are 1.42e+06 MFI and 2.18 nM. Take B13: the Bmax stood at 1.33e+06 MFI and the Kd was found to be 2.26 nM. In turn, B14 yielded a Bmax of 1.38e+06 MFI and a Kd of 2.62 nM. For the molecule B15, the Bmax was 1.38e+06 MFI and the Kd is 2.37 nM.
